Article doi:10.1101/2021.08.10.455837

Molecular target: human HBEGF (human) (UniProt Q99075)
Chain of UniProt Q99075 (Q99075 20-208): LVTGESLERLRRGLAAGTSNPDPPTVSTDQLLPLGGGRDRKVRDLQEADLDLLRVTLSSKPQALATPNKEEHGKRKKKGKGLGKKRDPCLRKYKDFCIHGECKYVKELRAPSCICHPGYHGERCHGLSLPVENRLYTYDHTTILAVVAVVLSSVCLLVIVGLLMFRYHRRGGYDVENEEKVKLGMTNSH

Work on “Diphtheria toxin (from UniProt P00588 33-567) (natural protein)” yielded an EC50 of toxicity (dose titration) on WT ARN8 cells (basal levels of HBEGF) of 0.026 nM.
